From US20070134249A1 (GENITOPE, published 2007)

Tests used:
Assay in all cases: ELISA
Design in all cases: key to grade: 0 = <0.5 OD, 1 = 0.5-1.0 OD, 4 = 1-4 OD
710 = biological target: T1, 710
T1 construct: H1-8 L2-8; also called PIN710
Description: (§1) Before specificity screening, all of the clonal immunogen-positive hybridoma supernatants were re-screened on the immunogen, a non-family member Id protein, and KLH, if animals were immunized with Id protein that has been conjugated KLH. As described above, this screen identifies HC-specific clones but not mAbs against the light chain constant region. Clones identified positive to the immunogen and KLH were […]. Those found positive to the immunogen but not to the non-family member Id protein or KLH were tittered on the immunogen. In addition to normalizing for different binding affinities and concentrations, each hybridoma supernatant was titered on the fully human form of the Id protein used as the immunogen(s) for the V regions. The titer or dilution resulting in an ELISA absorbance of 2.5 to 3 OD after 30 min. incubation time was then used. Hybridoma specificity was determined by screening against available Id proteins expressing the same HV and KV or LV as well as different HV, KV and LV. The final ELISA results are expressed as follows: 0 (<0.5 OD), 1 (0.5-1.0 OD), or 4 (1-4 OD). Positive hybridoma supernatants are categorized according to specificity: anti-Id, anti-constant region (HC, KC or LC), or V region (HV, KV, LV family or family member).
(§2) In general, the fully human Id protein or proteins containing the immunogen V regions were coated onto 96-well ELISA plates at 2.5-5 ug/mL in carbonate buffer pH 9.6 and incubated at 4° C. for up to 14 days. On the day of the ELISA, plates were brought to RT and blocked with Tris-Tween-20, pH 7.6 for 15-60 min. at RT. Following a NaCl and Triton X-100 wash, diluted hybridoma cell culture supernatants were incubated overnight at 4° C. Hybridoma supernatant dilutions ranged from 1:2 to 1:25 and were prepared in PBS with 5% BSA. Plates were washed and incubated with HRP-conjugated goat anti-mouse IgG-specific detecting antibody. A chromogenic substrate (TMB) was used to measure the amount of mouse antibody bound to each well. The reaction was stopped at or before 30 minutes with IN H2SO4 and plates were read immediately. Absorbency readings at 450 nm ranging between 0-4 OD and using Molecular Devices plate reader and SOFTMAX PRO software.

305 = biological target: T2, 305
T2 construct: H3-48 L1-40; also called PIN305
Description: as §1, §2

747 = biological target: T3, 747
T3 construct: H3-23 L2-14; also called PIN747
Description: as §1, §2

231 = biological target: T4, 231
T4 construct: H3-48 L2-14; also called PIN231
Description: as §1, §2

857 = biological target: T5, 857
T5 construct: H5-51 L2-14; also called PIN857
Description: as §1, §2

1167 = biological target: T6, 1167
T6 construct: H3-23 L2-14; also called PIN1167
Description: as §1, §2

733 = biological target: T7, 733
T7 construct: H3-48 L2-14; also called PIN733
Description: as §1, §2

1056 = biological target: T8, 1056
T8 construct: H3-48 L2-14; also called PIN1056
Description: as §1, §2

1089 = biological target: T9, 1089
T9 construct: H3-73 L2-23; also called PIN1089
Description: as §1, §2

164 = biological target: T10, 164
T10 construct: H4-39 L2-14; also called PIN164
Description: as §1, §2

796 = biological target: T11, 796
T11 construct: H3-23 L3-25; also called PIN796
Description: as §1, §2

1067 = biological target: T12, 1067
T12 construct: H1-8 L2-23; also called PIN1067
Description: as §1, §2

645 = biological target: T13, 645
T13 construct: H3-74 L2-14; also called PIN645
Description: as §1, §2

604 = biological target: T14, 604
T14 construct: H4-34 L2-8; also called PIN604
Description: as §1, §2

552 = biological target: T15, 552
T15 construct: H1-18 L2-8; also called PIN552
Description: as §1, §2

662 = biological target: T16, 662
T16 construct: fully human Id protein; also called PIN662
T16 sequence (heavy, as listed by the source): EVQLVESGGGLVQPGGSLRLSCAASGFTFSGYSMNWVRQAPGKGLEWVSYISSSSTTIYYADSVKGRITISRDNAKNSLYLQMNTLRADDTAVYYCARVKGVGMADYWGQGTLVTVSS
Description: as §1, §2

196 = biological target: T17, 196
T17 construct: H4-31 L2-23; also called PIN196
Description: as §1, §2

116 = biological target: T18, 116
T18 construct: fully human Id protein; also called PIN116
T18 sequence (VH, as listed by the source, chain 1 of 2): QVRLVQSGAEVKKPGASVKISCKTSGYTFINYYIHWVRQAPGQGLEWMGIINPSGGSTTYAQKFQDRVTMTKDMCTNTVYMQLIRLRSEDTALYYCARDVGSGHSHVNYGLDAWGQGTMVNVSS
T18 sequence (V domain, as listed by the source, chain 2 of 2): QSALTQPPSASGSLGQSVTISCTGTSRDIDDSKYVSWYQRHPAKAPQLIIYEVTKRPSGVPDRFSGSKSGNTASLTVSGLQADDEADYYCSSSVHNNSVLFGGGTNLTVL
Description: as §1, §2

625 = biological target: T19, 625
T19 construct: H4-61 L2-8; also called PIN625
Description: as §1, §2

- grade 710: 4
- grade 305: 4
- grade 747: 1
- grade 231: 4
- grade 857: 4
- grade 1167: 4
- grade 733: 4
- grade 1056: 4
- grade 1089: 4
- grade 164: 4
- grade 796: 4
- grade 1067: 4
- grade 645: 1
- grade 604: 4
- grade 552: 4
- grade 662: 4
- grade 196: 4
- binding result 116: no binding
- grade 625: 4
B1: mAb clone 4H11 (antibody, V domains shown)
VH: EVKLVESGGGLVKPGGSLKLSCAASGFAFSNYDMSWVRQTPEKRLEWVATIRSDDSYTYYPDSVKGRFTISRDNARNTLYLQMSSLRSEDTAFYYCARREGNYAMDYWGQGTSVTVSS
VL: DIQMTQSPASLSVSVGETVTITCRASENIYSYLAWYQQKKGKSPQLLVYAATNLGDGVPTRFSGSGSGTQYSLKINSLQSEDFGSYYCQHFWGNPLTFGAGTKLELKR
notes: Mouse hybridoma mAb
